The test deals with anti-FLAG M2 mouse monoclonal IgG1 (Sigma-Aldrich PN F-3165). The test is described as follows: capture on a 1 m Protein G capillary, elution with 14.7 mM phosphoric acid pH 2.2, Bradford assay at 595 nm.

Substance “Protein G (CalBiochem, San Diego, Calif., PN 539303) (from UniProt P19909 303-497)” displayed an amount of IgG trapped and eluted of 2.5 µg.

Values taken from US20040224362A1.
